Marks after values point to notes of the source that are not given here.

The target of series [1] is T1, NDM-1 (Klebsiella pneumoniae, UniProt C7C422). Put plainly: biochemical.
Series [2] addresses T2, SPM-1 (Pseudomonas aeruginosa, UniProt Q8G9Q0). Put plainly: SPM-1 inhibition (residual activity, IC50), FC4 as reporter substrate. It counts as biochemical. The text has this: To achieve clinical utility, MBL inhibitors may need to act on more than one MBL subfamily. This is potentially challenging because of the generally low sequence similarity between MBLs of different subfamilies (B1, B2, B3). […] This set of compounds was selected as a result of their previously reported inhibition of metal-binding oxygenases.[51] […] In contrast, the compounds derivatized with a Trp, Leu, Asp, or Glu residue inhibited SPM-1, with the tryptophan-functionalized chloroisoquinolinols (S)-7d and (R)-7d giving the most promising results (3% and 8% residual activity (RA) at 200 μM, respectively).
(§1) Taking into account the aforementioned requirements,
(§2) absorbance from Greiner Bio-One were used.
(§3) Determination of the steady state kinetic
(§4) concentration using the same software.
(§5) Additional tests verified

Series [3] addresses VIM-2 (Escherichia coli, UniProt Q5U7L7). The experiment in a line: biochemical.
Series [4] addresses T3, Bc II (Bacillus cereus, UniProt P04190).
T3 construct: made in house; host or cells: E. coli BL21(DE3) pLysS
Put plainly: Bc II inhibition IC50, FC4 as reporter substrate. It counts as biochemical.
Source text: as §1, §2, §3, §4, §5

For series [5], the target named is IMP-1 (Serratia marcescens, UniProt P52699). Put plainly: biochemical.
Series [6] is described as follows: Autohydrolysis and storage stability of fluorogenic substrates. It counts as physicochemical. As to conditions: for period of use when stored as solids: solids at −20 °C; for time solutions could be used: solutions stored on ice.
Series [7] deals with T1, NDM-1. It counts as biochemical. Also on record: His-tag (3C protease cleavable) (N, cleaved yes); made in house; host or cells: E. coli BL21(DE3) pLysS. As to conditions: substrate hydrolysis.
Source text: as §1, §2, §3, §4

Series [8] addresses T2, SPM-1. The experiment in a line: biochemical.
Source text: as §1, §2, §3, §4

For series [9], the system named is [H][C@@]12[C@H](NC(=O)Cc3ccccc3)C(=O)N1C(C(=O)O)=C(COc1ccc3ccc(=O)oc3c1)CS2(=O)=O. Put plainly: purified protein, by the assay type. To be noted: substrate hydrolysis.
The test system of series [10] is O=C(Cc1cccs1)N[C@@H]1C(=O)N2C(C(=O)O)=C(/C=C/c3ccc([N+](=O)[O-])cc3[N+](=O)[O-])CS[C@H]12. The experiment in a line: purified protein, by the assay type. As to conditions: substrate hydrolysis.
Series [11] concerns C[C@@H](O)[C@H]1C(=O)N2C(C(=O)O)=C(SCCN=CN)C[C@H]12. The experiment in a line: purified protein, by the assay type. To be noted: substrate hydrolysis.
Series [12] concerns O=C(Cc1ccccc1)N[C@@H]1C(=O)N2C(C(=O)O)=C(COc3ccc4ccc(=O)oc4c3)C[S+]([O-])[C@H]12. Put plainly: purified protein, by the assay type. To be noted: substrate hydrolysis.
The test system of series [13] is O=C(Cc1cccs1)N[C@@H]1C(=O)N2C(C(=O)O)=C(CSc3ccc([N+](=O)[O-])c(C(=O)O)c3)CS[C@H]12. Put plainly: purified protein, by the assay type. As to conditions: substrate hydrolysis.
Series [14] relates to O=C(Cc1ccccc1)N[C@@H]1C(=O)N2C(C(=O)O)=C(COc3ccc4ccc(=O)oc4c3)CS[C@H]12. The experiment in a line: purified protein, by the assay type. As to conditions: other: NDM-1; substrate hydrolysis.

T1 sequence (C7C422 29-270 limits assumed): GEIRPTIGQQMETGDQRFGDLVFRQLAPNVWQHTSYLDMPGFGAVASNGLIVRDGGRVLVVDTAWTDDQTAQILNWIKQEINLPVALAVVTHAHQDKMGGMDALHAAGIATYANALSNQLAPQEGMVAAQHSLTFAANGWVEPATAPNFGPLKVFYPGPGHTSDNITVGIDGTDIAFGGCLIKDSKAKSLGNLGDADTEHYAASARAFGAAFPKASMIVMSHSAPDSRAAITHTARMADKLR
T2 sequence (Q8G9Q0 entry or part of it): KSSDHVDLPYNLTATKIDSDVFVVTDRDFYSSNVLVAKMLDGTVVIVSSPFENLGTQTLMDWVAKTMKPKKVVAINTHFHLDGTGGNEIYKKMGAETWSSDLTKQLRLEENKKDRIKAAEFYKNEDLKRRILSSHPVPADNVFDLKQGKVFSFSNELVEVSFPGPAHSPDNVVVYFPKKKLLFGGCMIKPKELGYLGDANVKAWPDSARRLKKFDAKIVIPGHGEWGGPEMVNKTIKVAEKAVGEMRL
T3 sequence (P04190 31-257): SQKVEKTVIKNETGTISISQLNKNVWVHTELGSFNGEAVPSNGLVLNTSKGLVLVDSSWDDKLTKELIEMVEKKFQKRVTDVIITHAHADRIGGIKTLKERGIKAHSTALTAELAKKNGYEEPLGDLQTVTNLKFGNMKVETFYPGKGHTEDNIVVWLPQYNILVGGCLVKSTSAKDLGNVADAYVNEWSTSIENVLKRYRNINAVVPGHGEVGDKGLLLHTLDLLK
Sequence of IMP-1 (P52699 19-246 limits assumed): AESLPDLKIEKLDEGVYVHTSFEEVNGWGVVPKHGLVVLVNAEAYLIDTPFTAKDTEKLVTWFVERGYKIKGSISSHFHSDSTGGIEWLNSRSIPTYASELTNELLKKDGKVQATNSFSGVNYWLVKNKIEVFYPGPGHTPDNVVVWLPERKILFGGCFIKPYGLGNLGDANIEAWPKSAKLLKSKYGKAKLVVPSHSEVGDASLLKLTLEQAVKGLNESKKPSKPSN

As for `O=C(N[C@H](Cc1c[nH]c2ccccc12)C(=O)O)c1nc(Cl)c2ccccc2c1O` [(R)-7d], the IC50 in series [1] was determined as 47.1 ± 1.1 µM; in [2] it was 46.6 ± 1.1 µM; in [3] it was 55.3 ± 1.3 µM; in [4] it was 132.4 ± 1.3 µM; in series [5], 74.1 ± 1.6 µM.
In the same order, the values of `O=C(N[C@@H](Cc1c[nH]c2ccccc12)C(=O)O)c1nc(Cl)c2ccccc2c1O` [(S)-7d] are 61.4 ± 1.3 µM, 23.2 ± 1.1 µM, 54.7 ± 1.4 µM, 61.3 ± 1.3 µM and 75.6 ± 1.5 µM.
Consider `O=C(Cc1ccccc1)N[C@@H]1C(=O)N2C(C(=O)O)=C(COc3ccc4ccc(=O)oc4c3)CS[C@H]12` [FC3], for which the autohydrolysis in buffer entry in series [6] (buffer, room temperature, after 3 h) is “substantial hydrolysis”.
With `O=C(Cc1ccccc1)N[C@@H]1C(=O)N2C(C(=O)O)=C(COc3ccc4ccc(=O)oc4c3)C[S+]([O-])[C@H]12` (stereo partly drawn) [FC4, (6R,7R)-8-Oxo-3-(((2-oxo-2H-chromen-7-yl)oxy)methyl)-7-(2-phenylacetamido)-5-thia-1-azabicyclo[4.2.0]oct-2-ene-2-carboxylic Acid 5-Oxide], the “time stable in buffer (autohydrolysis study)” value in series [6] (buffer, room temperature) is “at least 8 h”. Further, in series [6], the “period of use when stored as solids” value was “months” and the “time solutions could be used” value lay in the range of 1 to 2 days.
With `O=C(Cc1ccccc1)N[C@@H]1C(=O)N2C(C(=O)O)=C(COc3ccc4ccc(=O)oc4c3)CS(=O)(=O)[C@H]12` [FC5, (6R,7R)-8-Oxo-3-(((2-oxo-2H-chromen-7-yl)oxy)methyl)-7-(2-phenylacetamido)-5-thia-1-azabicyclo[4.2.0]oct-2-ene-2-carboxylic Acid 5,5-Dioxide], the “time stable in buffer (autohydrolysis study)” value in series [6] (buffer, room temperature) is listed as “at least 8 h”. In addition, in [6], the “period of use when stored as solids” value is listed as “months” and the “time solutions could be used” value is 1 to 2 days.
Turning to `O=C(Cc1cccs1)N[C@@H]1C(=O)N2C(C(=O)O)=C(/C=C/c3ccc([N+](=O)[O-])cc3[N+](=O)[O-])CS[C@H]12` [nitrocefin], in series [7], the Km was 8.8 ± 1.1 µM and the kcat stood at 25.3 s^–1. For the same compound, the Ki in series [8] (apparent Ki value for substrate/product inhibition, table footnote) turned out to be 36.6 µM. In [8] (concentration at which SPM-1 is inhibited by nitrocefin/nitrocefin-derived species, substrate or product inhibition), this compound yielded a Ki of 36 µM.
For the compound `O=C(O)c1ccc(O)cc1O` [β-Resorcylic acid, reference compound], the “RA 1 mM (residual activity on SPM-1)” value in series [2] (compound at 1 mM, FC4 reporter substrate, 10 min preincubation) came to 76%.
As for BcII (Bacillus cereus), the kcat/Km in series [9] (other: BcII) came to 3.7e+06 M⁻¹ s⁻¹; in series [10] (other: BcII) it was 1.8e+06 M⁻¹ s⁻¹; in [11] (other: BcII) it was 400000 M⁻¹ s⁻¹; in series [12] (other: BcII), 700000 M⁻¹ s⁻¹; in series [13] (other: BcII), 60000 M⁻¹ s⁻¹. Further, the Km in [10] (other: BcII) turned out to be 8.1 ± 1.0 µM. The results for the kcat in [10] (other: BcII) and in series [13] (other: BcII) were 14.9 s⁻¹ and 8.9 s⁻¹, respectively.
As to IMP-1 (Serratia marcescens), the kcat/Km in [9] (other: IMP-1) worked out at 5.17e+08 M⁻¹ s⁻¹; in [10] (other: IMP-1) it was 5.02e+07 M⁻¹ s⁻¹; in [11] (other: IMP-1), 2.81e+07 M⁻¹ s⁻¹; in series [12] (other: IMP-1), 8.07e+08 M⁻¹ s⁻¹; in series [13] (other: IMP-1), 2.53e+07 M⁻¹ s⁻¹. Also, the Km in series [10] (other: IMP-1) amounted to 55.7 ± 4.8 µM. For the same compound, the kcat is 2790 s⁻¹ in series [10] (other: IMP-1) and 1200 s⁻¹ in [11] (other: IMP-1).
For NDM-1 (Klebsiella pneumoniae), the catalytic efficiency (kcat/Km) in series [14] is 5.8e+06 M⁻¹ s⁻¹; in series [9] (other: NDM-1), 1.24e+08 M⁻¹ s⁻¹; in series [11] (other: NDM-1), 3.6e+06 M⁻¹ s⁻¹; in series [12] (other: NDM-1), 3.2e+07 M⁻¹ s⁻¹. For the same compound, the Km in series [9] (other: NDM-1) came to 2.4 ± 0.2 µM; in [12] (other: NDM-1), 4.0 ± 0.8 µM.
Take SPM-1 (Pseudomonas aeruginosa): the Km in [9] (other: SPM-1) was 2.7 ± 0.2 µM; in series [10] (other: SPM-1), 16.0 ± 3.7 ^c μM; in [12] (other: SPM-1), 2.5 ± 0.2 µM. For the same compound, the kcat/Km in series [9] (other: SPM-1) turned out to be 1.03e+07 M⁻¹ s⁻¹; in series [10] (other: SPM-1) it was 40000 M⁻¹ s⁻¹; in series [11] (other: SPM-1), 100000 M⁻¹ s⁻¹; in series [12] (other: SPM-1), 3.5e+06 M⁻¹ s⁻¹; in [13] (other: SPM-1), 200000 M⁻¹ s⁻¹. Besides, the kcat in [10] (other: SPM-1) came out at 0.7 s⁻¹; in series [12] (other: SPM-1), 8.7 s⁻¹; in series [13] (other: SPM-1) it was 6.1 s⁻¹.
As for VIM-2 (Escherichia coli), the kcat/Km was 1.91e+07 M⁻¹ s⁻¹ in series [9] (other: VIM-2); 3.12e+07 M⁻¹ s⁻¹ in [10] (other: VIM-2); 1.1e+06 M⁻¹ s⁻¹ in [11] (other: VIM-2); 2e+07 M⁻¹ s⁻¹ in series [12] (other: VIM-2); 1.8e+06 M⁻¹ s⁻¹ in series [13] (other: VIM-2). Further, the results for the Km in [10] (other: VIM-2) and in [12] (other: VIM-2) were 7.2 ± 0.6 µM and 6.3 ± 0.4 µM, respectively. Further, in series [10] (other: VIM-2), the kcat was found to be 226 s⁻¹.

These data come from article PMC3910272, “Assay Platform for Clinically Relevant Metallo-β-lactamases” (Journal of Medicinal Chemistry, 2013).
